Here are results for three molecules from patent publication US20230037911A1 (SHANGHAI HENLIUS BIOTECH, published 2023).

T1: recombinant human TIGIT extra cellular domain (ECD) protein (human, UniProt Q495A1 22-138)
T1 construct: Purchased protein; it begins with the signal peptide; also called h-TIGIT ECD; human TIGIT ECD
T1 sequence: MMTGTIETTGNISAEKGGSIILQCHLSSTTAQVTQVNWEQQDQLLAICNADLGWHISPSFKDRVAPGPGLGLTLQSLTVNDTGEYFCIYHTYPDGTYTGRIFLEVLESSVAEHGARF

T2: recombinant mouse-TIGIT (mouse, UniProt P86176 29-148, limits assumed)
T2 sequence (looked up): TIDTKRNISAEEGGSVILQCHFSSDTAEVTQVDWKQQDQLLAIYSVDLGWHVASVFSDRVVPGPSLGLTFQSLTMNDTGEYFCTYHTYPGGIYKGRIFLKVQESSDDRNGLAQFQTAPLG

B1: 1G1-1C12 VHH (VHH)
VHH: QVQLVESGGGVVQPGRSLRLSCAASGPSFSSYPMGWFRQAPGKERESVAAISSDLRFTYYADSVKGRFTISRDNSKNTLYLQMNSLRAEDTAVYYCAARDSGSGYYSRKQWYDYWGQGTLVTVSS
notes: VHH in bacterial supernatant
B2: Bivalent 2A3 antibody (2A3-Fc), 2A3 VHH with human IgG1 CH2 and CH3 domains (Fc fusion)
chain: B1 VHH with P27G, L55M, S103V, K109A
notes: Expressed in ExpiCHO, protein A purified; also called 2A3-Fc mAb; 2A3 clone; not shown: human IgG1 CH2 and CH3 domains
B3: human TIGIT stably expressed on cells (Jurkat; 293T) (receptor)
chain: MMTGTIETTGNISAEKGGSIILQCHLSSTTAQVTQVNWEQQDQLLAICNADLGWHISPSFKDRVAPGPGLGLTLQSLTVNDTGEYFCIYHTYPDGTYTGRIFLEVLESSVAEHGARFQIPLLGAMAATLVVICTAVIVVVALTRKKKALRIHSVEGDLRRKSAGQEEWSPSAPSPPGSCVQAEAAPAGLCGEQRGEDCAELHDYFNVLSYRSLGNCSFFTETG
notes: the expression vector's insert is not described further; also called h-TIGIT; human TIGIT transfected Jurkat cells

Assay [1] deals with T1, recombinant human TIGIT extra cellular …. Description: ELISA, VHH in supernatant. A general note: An ELISA detects its analyte on a solid surface through an enzyme-linked reagent.
Assay [2] has as its target T3, recombinant cynomolgus TIGIT (cyno-TIGIT ECD) (cynomolgus monkey, UniProt A0A7N9I9V4 89-209).
T3 construct: extracellular domain
Description: ELISA on recombinant cyno-TIGIT.

In assay [3] the target is T2, recombinant mouse-TIGIT. Description: ELISA.
For assay [4], the target named is B3. Description: cell-based or functional assay.
For assay [5], the target named is B3. Kind of assay: flow cytometry, whole cell binding assay on human TIGIT expressing cells (upper panel). (In flow cytometry, cells or beads pass a laser one at a time.)
Assay [6] concerns the target B3. Description: whole cell binding, flow cytometry, n=3.
Assay [7] concerns the target T1, recombinant human TIGIT extra cellular …. Kind of assay: ELISA on recombinant human TIGIT ECD.
The target of assay [8] is B3. Description: cell-based or functional assay. This is another data set of the same source.
The target of assay [9] is T4, 1G1-F-G-ERES humanized bivalent antibody (human, UniProt P01857-1 104-330 = IgG part, limits assumed).
T4 construct: domain: CH2 and CH3; Called humanized bivalent antibody; the Fc part is not restated
Kind of assay: flow cytometry, whole cell binding on h-TIGIT transfected Jurkat cells; anti-human IgG Fc AlexaFluor488 secondary. The procedure:
(§1) The binding affinities of the humanized bivalent antibodies to human TIGIT were determined by whole cell binding to h-TIGIT stably expressed on Jurkat cells. Briefly, antibodies were incubated with h-TIGIT transfected Jurkat cells (0.2×10⁶/well in 100 μl) for 30 min in FACS buffer. The cells were washed once, then incubated with anti-human IgG Fc AlexaFluor488 (1:500).

The target in assay [10] is T5, 1G1-F-A-ERES humanized bivalent antibody (human, UniProt P01857-1 104-330 = IgG part, limits assumed).
T5 construct: domain: CH2 and CH3; Called humanized bivalent antibody; the Fc part is not restated
Described as above. As to the method: as §1

Assay [11] deals with T6, 1C12-GLEW humanized bivalent antibody (human, UniProt P01857-1 104-330 = IgG part, limits assumed).
T6 construct: domain: CH2 and CH3; Called humanized bivalent antibody; the Fc part is not restated; also called 1C12(F-GLEW)
The assay is described as above. As to the method:
as §1

Assay [12] concerns the target T7, 1C12-EREW humanized bivalent antibody (human, UniProt P01857-1 104-330 = IgG part, limits assumed).
T7 construct: domain: CH2 and CH3; Called humanized bivalent antibody; the Fc part is not restated; also called 1C12 (F-EREW)
Described as above. The procedure:
as §1

Assay [13] deals with T8, 1C12-EREF humanized bivalent antibody (human, UniProt P01857-1 104-330 = IgG part, limits assumed).
T8 construct: domain: CH2 and CH3; Called humanized bivalent antibody; the Fc part is not restated; also called 1C12 (F-EREF)
Described as above. As to the method: as §1

The target in assay [14] is T9, 3G6 bivalent VHH antibody (VHH with human CH2 and CH3) (human, UniProt P01857-1 104-330 = IgG part, limits assumed).
T9 construct: domain: CH2 and CH3
T9 sequence (P01857 other isoform, or with tags, fused parts or gaps limits assumed): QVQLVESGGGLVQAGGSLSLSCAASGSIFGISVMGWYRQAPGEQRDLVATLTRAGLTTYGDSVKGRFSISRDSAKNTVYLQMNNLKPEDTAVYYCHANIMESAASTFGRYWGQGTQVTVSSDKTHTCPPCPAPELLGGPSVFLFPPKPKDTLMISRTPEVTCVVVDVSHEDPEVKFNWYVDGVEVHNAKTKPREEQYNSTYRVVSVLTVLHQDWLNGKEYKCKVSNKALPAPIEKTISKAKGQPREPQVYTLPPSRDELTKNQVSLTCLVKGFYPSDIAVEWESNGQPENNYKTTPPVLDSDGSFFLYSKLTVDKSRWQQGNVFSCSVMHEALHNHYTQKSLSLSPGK
Description: flow cytometry, whole cell binding on Jurkat cells stably expressing human TIGIT; Alexa Fluor 488 anti-human IgG Fc secondary. From the text: (§2) FIGS. 1A-1C depict whole cell binding of representative VHH bivalent antibodies to human TIGIT determined by flowcytometry assays. […] Y axis represents Mean Fluorescence Intensity of AlexaFlour 488. X axis represents antibody concentrations in nanomolar. […] FIG. 1C is a schematic of the structure of a TIGIT VHH bivalent antibody.
(§3) Jurkat cells stably expressing human TIGIT and NFAT reporter gene were established. Specifically, Jurkat cells were transfected with human TIGIT expression vector by electroporation, and cells stably expressing human TIGIT were selected by 1 μg/ml puromycin during cell culture. Representative antibody clones were incubated at different concentrations with h-TIGIT stably expressing Jurkat cells (0.2×10⁶/ml) in 100 μl/well in 96-well plate in FACS buffer (PBS with 1.5% FBS) for 30 min. After washing, Alexaflour 488 conjugated anti-human IgG Fc secondary antibody (Alexa Fluor® 488 AffiniPure Goat Anti-Human IgG, Fcγ fragment specific, Jackson labs, 1:500 dilution) was added and incubated for 30 min. After washing, mean fluorescence intensity was measured using CytoFlex (Beckman Coulter) by gating live cell population. Binding affinity was calculated using GraphPad Prism.

For assay [15], the target named is T10, 2B7 bivalent VHH antibody (VHH with human CH2 and CH3) (human, UniProt P01857-1 104-330 = IgG part, limits assumed).
T10 construct: domain: CH2 and CH3; Expressed in ExpiCHO, Protein A purified
T10 sequence (P01857 other isoform, or with tags, fused parts or gaps limits assumed): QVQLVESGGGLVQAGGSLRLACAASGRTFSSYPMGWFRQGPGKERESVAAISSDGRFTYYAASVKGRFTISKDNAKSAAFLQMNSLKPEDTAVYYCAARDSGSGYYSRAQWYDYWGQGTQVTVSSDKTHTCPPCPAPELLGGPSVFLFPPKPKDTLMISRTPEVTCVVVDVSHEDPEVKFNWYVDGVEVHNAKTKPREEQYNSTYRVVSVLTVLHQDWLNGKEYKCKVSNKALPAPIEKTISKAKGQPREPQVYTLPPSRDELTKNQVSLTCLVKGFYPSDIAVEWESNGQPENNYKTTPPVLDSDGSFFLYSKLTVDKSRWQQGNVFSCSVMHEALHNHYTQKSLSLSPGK
The assay is described as above.
Excerpt: as §2, §3

Assay [16] has as its target T11, 2B10 bivalent VHH antibody (VHH with human CH2 and CH3) (human, UniProt P01857-1 104-330 = IgG part, limits assumed).
T11 construct: domain: CH2 and CH3
Described as above.
Excerpt: as §2, §3

Assay [17] deals with T12, 3G7 bivalent VHH antibody (VHH with human CH2 and CH3) (human, UniProt P01857-1 104-330 = IgG part, limits assumed).
T12 construct: domain: CH2 and CH3
T12 sequence (P01857 other isoform, or with tags, fused parts or gaps limits assumed): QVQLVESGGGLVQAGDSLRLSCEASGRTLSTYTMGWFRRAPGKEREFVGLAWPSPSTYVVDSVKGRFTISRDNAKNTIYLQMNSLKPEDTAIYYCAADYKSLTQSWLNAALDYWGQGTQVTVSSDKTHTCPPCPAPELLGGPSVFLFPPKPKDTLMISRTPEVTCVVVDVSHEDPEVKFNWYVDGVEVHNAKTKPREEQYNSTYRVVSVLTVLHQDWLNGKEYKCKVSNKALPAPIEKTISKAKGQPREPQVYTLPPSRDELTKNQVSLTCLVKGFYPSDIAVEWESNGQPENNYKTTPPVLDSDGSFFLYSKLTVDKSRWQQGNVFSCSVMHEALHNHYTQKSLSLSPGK
The assay is described as above.
Excerpt: as §2, §3

Assay [18] concerns the target T13, 15A5 bivalent VHH antibody (VHH with human CH2 and CH3) (human, UniProt P01857-1 104-330 = IgG part, limits assumed).
T13 construct: domain: CH2 and CH3
Described as above.
Excerpt: as §2, §3

Assay [19] deals with T14, 13H11 bivalent VHH antibody (VHH with human CH2 and CH3) (human, UniProt P01857-1 104-330 = IgG part, limits assumed).
T14 construct: domain: CH2 and CH3
T14 sequence (P01857 other isoform, or with tags, fused parts or gaps limits assumed): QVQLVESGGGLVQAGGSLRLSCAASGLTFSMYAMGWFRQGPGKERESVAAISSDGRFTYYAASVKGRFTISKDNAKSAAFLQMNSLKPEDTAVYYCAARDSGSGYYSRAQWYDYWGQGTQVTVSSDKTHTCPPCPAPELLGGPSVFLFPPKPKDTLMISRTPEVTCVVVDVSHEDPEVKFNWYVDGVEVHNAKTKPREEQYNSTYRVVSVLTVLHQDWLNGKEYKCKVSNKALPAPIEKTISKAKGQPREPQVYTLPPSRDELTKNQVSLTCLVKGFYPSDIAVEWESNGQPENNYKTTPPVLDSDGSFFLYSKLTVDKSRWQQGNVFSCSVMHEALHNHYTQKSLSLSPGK
Described as above.
Excerpt: as §2, §3

Where a chain is given by its changes, count along the chain named.

T13 sequence (P01857 other isoform, or with tags, fused parts or gaps limits assumed): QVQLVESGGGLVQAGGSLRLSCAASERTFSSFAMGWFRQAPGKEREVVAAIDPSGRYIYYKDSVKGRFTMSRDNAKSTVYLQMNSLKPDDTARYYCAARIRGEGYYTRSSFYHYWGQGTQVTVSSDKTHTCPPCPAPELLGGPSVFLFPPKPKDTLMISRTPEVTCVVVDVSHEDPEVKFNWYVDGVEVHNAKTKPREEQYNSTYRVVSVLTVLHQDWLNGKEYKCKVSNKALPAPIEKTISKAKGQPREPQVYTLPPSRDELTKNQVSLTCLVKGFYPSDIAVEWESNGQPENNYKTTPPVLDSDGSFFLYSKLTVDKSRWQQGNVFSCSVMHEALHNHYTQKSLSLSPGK
T3 sequence (A0A7N9I9V4 entry or part of it): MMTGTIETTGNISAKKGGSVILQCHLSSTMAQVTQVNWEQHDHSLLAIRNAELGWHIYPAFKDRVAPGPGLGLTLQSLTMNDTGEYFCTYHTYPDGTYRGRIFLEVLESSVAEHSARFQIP
T11 sequence (P01857 other isoform, or with tags, fused parts or gaps limits assumed): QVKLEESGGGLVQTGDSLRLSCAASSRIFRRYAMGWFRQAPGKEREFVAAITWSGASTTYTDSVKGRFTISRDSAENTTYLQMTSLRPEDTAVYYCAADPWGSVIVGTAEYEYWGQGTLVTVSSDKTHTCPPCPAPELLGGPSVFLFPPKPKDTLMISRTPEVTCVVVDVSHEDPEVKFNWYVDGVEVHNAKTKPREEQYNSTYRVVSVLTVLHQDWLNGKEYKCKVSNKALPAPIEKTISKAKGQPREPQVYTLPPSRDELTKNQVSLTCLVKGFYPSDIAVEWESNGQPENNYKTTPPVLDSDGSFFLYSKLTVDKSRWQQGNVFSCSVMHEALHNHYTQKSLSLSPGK

With B1, in [1], the binding result is reported as “binds”.

As a reminder, the EC50 (read off the curve) is the midpoint of the concentration-response curve. Broadly, the EC50 is the concentration that produces a half-maximal response. A lower EC50 goes with a more potent agent. Regarding B2, the “EC50 (read off the curve)” value was around 0.1 µg/mL in [2], around 0.5 nM in assay [5] and around 0.1 µg/mL in [7]. Moreover, in assay [3], the binding result is recorded as “no binding”. Also, in [4], the “EC50 (read off the curve); NFAT reporter activity (RLU), human TIGIT blockade reporter assay (lower panel)” value was around 1 nM. The molecule further gave an EC50 in [6] of 0.32 nM. The “EC50, TIGIT blockade NFAT luciferase reporter assay” value in assay [8] stood at 0.48 nM.

As for B3, the binding result in assay [9], in [10], in assay [11], in [12], in [13] and in [14] was “binds” in each case. In addition, the binding result in assay [15], in assay [16], in assay [17], in assay [18] and in assay [19] was “binds” throughout.
